The nature of the series: soluble fraction after stress (log2 fold change); higher = more stays soluble; pooled small domains, quantitative proteomics. The settings on record: stress: 75 degC.
With “HMIRQETYLLVRKAVGALPVQMRKIIELAMQGKKNAEIAAQLSISEGTVHTLKKTAYKKLRDRLQE”, the “soluble fraction (log2)” value is -3.12.

For the sequence “HMIRQGTKQALLIEMLQRPEGASITEIVEATSWQAHTARGAISGALKKKLGLPITSEKHPERGTVYKL”, the “soluble fraction (log2)” value was -0.862.

Turning to “HMISAQEQALRNLKLSNGMTWKALAKALGITERSILSYVAAPGTKGYREMPAEVWHKLENISGH”, the “soluble fraction (log2)” value was -0.0432.

Consider “HMISDAEWTIMKALWQSEDKKMTLKEIAEAVADSGWSYTTVRTMVGRLVEKEAIEADESHPRNFRYSAA”, for which the “soluble fraction (log2)” value is -1.2.

Turning to “HMISEGDIIKGTVIDVNEEEVILDLKYYAQGVIKAENLSNDPDFLAAGKISVGDEIEATVIKMDDGEGNIE”, the “soluble fraction (log2)” value was 0.529.

As for “HMISESIPAKDALLRLLNTAYQTRTNAAGEFYFNDVPPGKYILQASVNDVEIIRENISINEN”, the “soluble fraction (log2)” value is -0.377.

Take “HMISEWDAAYSYAKQYYEENGHLFVPKKYVTSEGAALGKWIWEQRDSYLGLSSYKISDKKIEMLEDIGMFW”: the “soluble fraction (log2)” value is -4.03.

In the case of “HMISINVIGEMISGSYGNTPFSRTYEKDIYEQMVKLSDDADQAQTVEEYNKILAEFSLLTTEDLK”, the “soluble fraction (log2)” value was -0.546.

“HMISKWGELVDLAVQLDIIQKSGSWFSMGDERIGQGANSVKDYLIANPDIAEKVEAEVRENLWKLN”: the “soluble fraction (log2)” value was -0.625.

“HMISKYLRIESDILSAIREGRLKPGDKLPGQSEMRRIYNVSAITVRKAFTDLINDGYLVGVRGSGTYVAKR”: the “soluble fraction (log2)” value was -0.91.

For the sequence “HMISQATMEKMGLTNRERQLVDFIVRGASNQEISEKMFISINTVKIHVSNIFRKAGVRSRTELMDKYP”, the “soluble fraction (log2)” value is -3.26.

As for “HMISSKDIINDEDGARLGKIADVEIDVATGKILSVHVYRSFKLLHLFGNKDVVQIPWNKIMKIGSDVVIVE”, the “soluble fraction (log2)” value turned out to be 0.102.

For the sequence “HMISVENLSNREFEIFQLIGNGFSTKEMAKKLNLSIYTVESHKKNIKEKLKLKNSSDLSKYAIQWVIMQN”, the “soluble fraction (log2)” value is -2.94.

Regarding “HMITANNYFNEVERIGVETLPETLRKGHDLVVRSTNSGTNWSNYQNNESIRKVIDLYLQKLNEYVSTST”, the “soluble fraction (log2)” value came out at 0.294.

“HMITGSIQPKNGKYYAVLNLYDHTGKRRPKWVSTGYTVKGNKKKAQEVLNELTRRYSAQLPPSK”: the “soluble fraction (log2)” value was -1.05.

Consider “HMITLPDFVGKDVETVKAWAKENGITLIVNKVEDSAKKDTVISQTPTTYDYSKIMKGSSFTVNVAKE”, for which the “soluble fraction (log2)” value turned out to be 0.206.

Take “HMITNLEPFKDFVRGFSGLHLEGVGQEKLAAALDERIRKTGSANERDYLQLIMEDVAERLKLINILT”: the “soluble fraction (log2)” value was -0.627.

Consider “HMITPAARLRALKIRLSVDEVAQIVQRLVNGETVYQIGKPDTGGHAKATVGKINALRLAGQLHFL”, for which the “soluble fraction (log2)” value was -1.45.

For “HMITTLLVENLQDVGMRLDHYLVYNLIKYSRSHIQSFIRSGDIRVNGKKVKTGYSLELKDLIHIEMP”, the “soluble fraction (log2)” value was -3.66.

Consider “HMITVPKVINMSETQARQTLDALGLNVTLSATQVMNDKIPYGYVAAQSYSAGKEVPAGTTIELTMSIGL”, for which the “soluble fraction (log2)” value is -2.03.

For “HMIVDYPSFVGKTKQELEKWAKENNIIIRYRQLSVTASDKVKAQLPATTTYKRIMKGSSIEVELEL”, the “soluble fraction (log2)” value is -2.44.

In the case of “HMIVIMKAKAEEEDVNRVIDTIQSLGLRTQLNLGAERMVVAVIGDISKIGEDNFFRIRAMKGVENTVFVSK”, the “soluble fraction (log2)” value is -2.12.

Take “HMIVMPELRGKDLKEAERLLSSHNLRYELVDSVYDKSLAPGVVVEMVPQSGNTVKPGRIIFLSINA”: the “soluble fraction (log2)” value is -0.982.

Consider “HMIVNTTRAPYLLGETEQDAMRLARQAGLVPEIVRQSSAEPAGTVILQSHDFDYRMRRGSVILITVSTGPL”, for which the “soluble fraction (log2)” value is -2.84.

For the sequence “HMIVPPAIPFRALGIFGPRDRPIVTFEDGPRLINAREGDVLDGRFILRRVGRESVDFAFVGLPPEITRRIP”, the “soluble fraction (log2)” value is -0.571.

On to “HMIVSEYIIIGGDKKEYGPVSMGEVGEWVQGGRANGDSKIKKVGTEEWGRLRDFPEFSAYLS”, for which the “soluble fraction (log2)” value came to 0.121.

Turning to “HMIVVMARETSTDDLEAIRERIESRGMVAQINLGVERTVIGVMGSIPPDFKDEMELMNGVVEVVMISK”, the “soluble fraction (log2)” value was -2.56.

In the case of “HMIVVMKTSASERDLQEVIARIEQFGFATRSIVGSERATVSVLGAPLPDSLQEALERMPGVEEVVRITK”, the “soluble fraction (log2)” value is -1.48.

On to “HMIYAEDFVGRQGTANTILRPSGRIEIEGEVYDAYTRGEYVEAGERVVVISQEGSTLKVRVV”, for which the “soluble fraction (log2)” value is -0.611.

As to “HMIYQEGMQVKYQGKEYVISEIQDYKTYKTIKLDDNEGYLNGFITGSEILSFRNESELDLEI”, the “soluble fraction (log2)” value is -0.208.

Consider “HMIYSKSDLELFGIKKIDVMEENILMLILSEYELDQTPKNILIDEAVRLSKKFGADNAYKFVNATLDTLL”, for which the “soluble fraction (log2)” value was -1.15.

Regarding “HMKAETILAIPENQPERLFPNNEDEARKIYRDLAREWHTDRNKSPKAQDVFSHLSKLYDIVIDRIKNKTWT”, the “soluble fraction (log2)” value was found to be 0.194.

In the case of “HMKAGRNTLARQMAILEVLQKDGRALVDDLAARFETTPQTIRKDLSALAEVNQISRFHGGAALVG”, the “soluble fraction (log2)” value was -0.159.

For “HMKAKTYTVQYIDEGKIIKEEELEEGSIINAPEVTKEGHTFIGWYEGEEKYDVYEPITRNLILESKNEIN”, the “soluble fraction (log2)” value is -0.176.

Consider “HMKALEGMRTVFTLADLATEPVTVEITVLEAFKYTTTLEIVQRPVLREWMTNPSMLIRVYHDASTAE”, for which the “soluble fraction (log2)” value was determined as 0.0452.

Values taken from the domain aggregation screens of Martell et al. (2025).
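Also: 20 min heating vs room temperature control held 20 min.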
